Source: paper PMC5458255

Molecular target: CCR7 receptor (human (endogenous in NKL3 and MDA-MB-231)) (UniProt P32248)
Sequence of UniProt P32248 (P32248 25-378): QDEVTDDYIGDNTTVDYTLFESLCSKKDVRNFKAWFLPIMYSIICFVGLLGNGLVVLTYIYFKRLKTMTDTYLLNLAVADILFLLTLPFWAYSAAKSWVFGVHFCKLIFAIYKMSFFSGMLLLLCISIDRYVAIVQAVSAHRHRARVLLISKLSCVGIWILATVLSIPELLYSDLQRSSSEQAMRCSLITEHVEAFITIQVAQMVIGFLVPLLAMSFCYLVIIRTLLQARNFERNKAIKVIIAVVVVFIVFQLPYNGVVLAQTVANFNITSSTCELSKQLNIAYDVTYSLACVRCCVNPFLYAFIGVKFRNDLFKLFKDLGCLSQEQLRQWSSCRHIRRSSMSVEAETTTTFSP

## recombinant human CCL21 (from UniProt O00585 24-134) (ligand)
  adhesion under flow of NKL3 cells to HPLNEC.B3 endothelial cells treated with CCL21, hypoxia; total inhibition by anti-CCR7 neutralizing antibodies: 2.5 fold
